Laboratory results as given in the supplement of paper PMC7125110.
± gives the standard error. For some of these results: Fewer inactive variants are shown than the library holds.

B1: glmS ribozyme (parent)
chain: AUAAAAGCGCCAGAACUACAGAAAUGUAGUUGACGAGGAGGAGGUUUAUCGAAUUUUCGGCGGAUGCCUCCAAA

What was measured:
Conditions in all cases: with glucosamine-6-phosphate
glucosamine-6-phosphate [1] = variants of: B1; assay: kcat; higher = faster cleavage; RNA array
Outline: (§1)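 On sequenced MiSeq chips, barcoded ribozyme variants were made in situ by E. coli RNA polymerase and followed at 37 °C through a hybridised Cy3 probe. Glucosamine-6-phosphate was flowed in at 40 μM to 10 mM in HEPES/KCl/Mg(OAc)2 buffer. Exponential fits to normalised per-tile medians gave kobs, and weighted Michaelis–Menten fits gave kcat and KM.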

glucosamine-6-phosphate [2] = variants of: B1; assay: KM; higher = weaker cofactor use; RNA array
Outline: as §1

glucosamine-6-phosphate [3] = variants of: B1; assay: self-cleavage kobs at 640 uM GlcN6P; higher = faster cleavage; RNA array
Outline: as §1

glucosamine-6-phosphate [4] = variants of: B1; assay: self-cleavage kobs at 2500 uM GlcN6P; higher = faster cleavage; RNA array
Outline: as §1

glucosamine-6-phosphate [5] = variants of: B1; assay: self-cleavage kobs at 10000 uM GlcN6P; higher = faster cleavage; RNA array
Outline: as §1

glucosamine-6-phosphate [6] = variants of: B1; assay: self-cleavage kobs at 40 uM GlcN6P; higher = faster cleavage; RNA array
Outline: as §1

glucosamine-6-phosphate [7] = variants of: B1; assay: self-cleavage kobs at 160 uM GlcN6P; higher = faster cleavage; RNA array
Outline: as §1

For AUAAAAGCGCCAGAACUACAGAAAUUUAGUUGACGAGGAGGAGGUUUAUCGAAUUUUCGGCGGAUGGCUCCAAA [G26U C67G], the kcat (glucosamine-6-phosphate [1]) was 0.000379 ± 7.2e-05 s⁻¹, the KM (glucosamine-6-phosphate [2]) was 901 ± 420 µM and the “self-cleavage kobs at 640 uM GlcN6P” value (glucosamine-6-phosphate [3]) was 0.000245 ± 8.1e-05 s⁻¹. For the same variant, the “self-cleavage kobs at 2500 uM GlcN6P” value (glucosamine-6-phosphate [4]) was 0.000254 ± 5.2e-05 s⁻¹ and the “self-cleavage kobs at 10000 uM GlcN6P” value (glucosamine-6-phosphate [5]) was 0.000395 ± 0.00012 s⁻¹.

AUAAAAGCGCCAGAACUACAGAAAUGUAAUUGACGAGGAGGAGGUUUAUCGAAUUUUCGGCGGCUGCCUCCAAA [G29A A64C] was tested, and the kcat (glucosamine-6-phosphate [1]) was < 1e-05 s⁻¹, the “self-cleavage kobs at 40 uM GlcN6P” value (glucosamine-6-phosphate [6]) was < 1e-05 s⁻¹ and the “self-cleavage kobs at 160 uM GlcN6P” value (glucosamine-6-phosphate [7]) was < 1e-05 s⁻¹.

With AUAAAAGCGCCAGAACUACAGAAAUGUAAUUGACGAGGAGGAGGUUUAUCGAAUUUUCGGCGGGUGCCUCCAAA [G29A A64G] the kcat (glucosamine-6-phosphate [1]) was 0.0066 ± 0.0018 s⁻¹, the KM (glucosamine-6-phosphate [2]) was 3900 ± 1500 µM and the “self-cleavage kobs at 40 uM GlcN6P” value (glucosamine-6-phosphate [6]) was 0.000101 ± 2.6e-05 s⁻¹. For the same variant, the “self-cleavage kobs at 160 uM GlcN6P” value (glucosamine-6-phosphate [7]) was 0.000242 ± 6.6e-05 s⁻¹, the “self-cleavage kobs at 640 uM GlcN6P” value (glucosamine-6-phosphate [3]) was 0.000967 ± 0.00022 s⁻¹ and the “self-cleavage kobs at 2500 uM GlcN6P” value (glucosamine-6-phosphate [4]) was 0.00217 ± 0.00041 s⁻¹. For the same variant, the “self-cleavage kobs at 10000 uM GlcN6P” value (glucosamine-6-phosphate [5]) was 0.00532 ± 0.00092 s⁻¹.

In the case of AUAAAAGCGCCAGAACUACAGAAAUGUAAUUGACGAGGAGGAGGUUUAUCGUAUUUUCGGCGGAUGCCUCCAAA [G29A A52U], the kcat (glucosamine-6-phosphate [1]) is reported as 0.0001272 ± 9.8e-07 s⁻¹, the KM (glucosamine-6-phosphate [2]) is reported as 2770 ± 58 µM and the “self-cleavage kobs at 40 uM GlcN6P” value (glucosamine-6-phosphate [6]) is reported as < 1e-05 s⁻¹. The “self-cleavage kobs at 640 uM GlcN6P” value (glucosamine-6-phosphate [3]) was 2.42e-05 ± 1.1e-05 s⁻¹, the “self-cleavage kobs at 2500 uM GlcN6P” value (glucosamine-6-phosphate [4]) was 5.99e-05 ± 1.4e-05 s⁻¹ and the “self-cleavage kobs at 10000 uM GlcN6P” value (glucosamine-6-phosphate [5]) was 9.97e-05 ± 1.3e-05 s⁻¹.

For AUAAAAGCGCCAGAACUACAGAAAUGUAAUUGACGAGGAGGAGGUUUAUCGGAUUUUCGGCGGAUGCCUCCAAA [G29A A52G], the kcat (glucosamine-6-phosphate [1]) was 0.000368 ± 9e-05 s⁻¹, the KM (glucosamine-6-phosphate [2]) was 3290 ± 1300 µM and the “self-cleavage kobs at 640 uM GlcN6P” value (glucosamine-6-phosphate [3]) was 5.31e-05 ± 8.1e-06 s⁻¹. The “self-cleavage kobs at 2500 uM GlcN6P” value (glucosamine-6-phosphate [4]) was 0.000207 ± 2.8e-05 s⁻¹ and the “self-cleavage kobs at 10000 uM GlcN6P” value (glucosamine-6-phosphate [5]) was 0.000255 ± 3.8e-05 s⁻¹.

AUAAAAGCGCCAGAACUAAAGAAAUGUAGUUGACGAGGAGGGGGUUUAUCGAAUUUUCGGCGGAUGCCUCCAAA [C19A A42G] was tested, and the kcat (glucosamine-6-phosphate [1]) was 0.00828 ± 0.0016 s⁻¹, the KM (glucosamine-6-phosphate [2]) was 164 ± 59 µM and the “self-cleavage kobs at 40 uM GlcN6P” value (glucosamine-6-phosphate [6]) was 0.00166 ± 0.00056 s⁻¹. For the same variant, the “self-cleavage kobs at 640 uM GlcN6P” value (glucosamine-6-phosphate [3]) was 0.00596 ± 0.0022 s⁻¹.

In the case of AUAAAAGCGCCAGAACUACAGAAAUGUAAUUGACGAGGAGGAGGUUUAUCGAAUUUUCGGCGGAUGCGUCCAAA [G29A C68G], the kcat (glucosamine-6-phosphate [1]) is reported as 3.6e-05 ± 1e-05 s⁻¹, the “self-cleavage kobs at 160 uM GlcN6P” value (glucosamine-6-phosphate [7]) is reported as 2.59e-05 ± 1.2e-05 s⁻¹ and the “self-cleavage kobs at 640 uM GlcN6P” value (glucosamine-6-phosphate [3]) is reported as 4.89e-05 ± 9.9e-06 s⁻¹. For the same variant, the “self-cleavage kobs at 2500 uM GlcN6P” value (glucosamine-6-phosphate [4]) was 3.97e-05 ± 1.1e-05 s⁻¹.

AUAAAAGCGCCAGAACUACAAAAAUGUAGUUGACGAGGAGGAGGUUUAUCGAAUUUUGGGCGGAUGCCGCUAAA [G21A C58G U69G C71U] was tested, and the kcat (glucosamine-6-phosphate [1]) was 4e-05 ± 1e-05 s⁻¹, the “self-cleavage kobs at 160 uM GlcN6P” value (glucosamine-6-phosphate [7]) was 5.48e-05 ± 1.6e-05 s⁻¹ and the “self-cleavage kobs at 640 uM GlcN6P” value (glucosamine-6-phosphate [3]) was 4.19e-05 ± 1.7e-05 s⁻¹. The “self-cleavage kobs at 2500 uM GlcN6P” value (glucosamine-6-phosphate [4]) was 3.42e-05 ± 1.6e-05 s⁻¹.

With AUAAAAGCGCCAGAACUACAGAAAUGUAAUUGACGAGGAGGAGGUUUAUCGAAUUUUAGGCGGAUGCCUCCAAA [G29A C58A] the kcat (glucosamine-6-phosphate [1]) was 0.000173 ± 2.2e-06 s⁻¹, the KM (glucosamine-6-phosphate [2]) was 875 ± 32 µM and the “self-cleavage kobs at 640 uM GlcN6P” value (glucosamine-6-phosphate [3]) was 7.35e-05 ± 1.6e-05 s⁻¹. For the same variant, the “self-cleavage kobs at 2500 uM GlcN6P” value (glucosamine-6-phosphate [4]) was 0.000126 ± 2.9e-05 s⁻¹ and the “self-cleavage kobs at 10000 uM GlcN6P” value (glucosamine-6-phosphate [5]) was 0.00016 ± 3e-05 s⁻¹.

AUAAAAGCGCCAGAACUACAGAAAUGUAAUUGACGAGGAGGAGGUUUAUAGAAUUUUCGGCGGAUGCCUCCAAA [G29A C50A] showed a kcat (glucosamine-6-phosphate [1]) of 1.1e-05 ± 3.2e-06 s⁻¹.

For AUAAAAGCGCCAGAACUACAGAAAUGUAAUUGACGAGGAGGAGGUUUAUCGAAUUUUCGGCGGAUGCCUCCAAA [G29A], the kcat (glucosamine-6-phosphate [1]) was 0.00814 ± 0.00078 s⁻¹, the KM (glucosamine-6-phosphate [2]) was 1590 ± 200 µM and the “self-cleavage kobs at 40 uM GlcN6P” value (glucosamine-6-phosphate [6]) was 0.000207 ± 4.5e-06 s⁻¹. The “self-cleavage kobs at 160 uM GlcN6P” value (glucosamine-6-phosphate [7]) was 0.000639 ± 6.2e-05 s⁻¹, the “self-cleavage kobs at 640 uM GlcN6P” value (glucosamine-6-phosphate [3]) was 0.00201 ± 9.3e-05 s⁻¹ and the “self-cleavage kobs at 2500 uM GlcN6P” value (glucosamine-6-phosphate [4]) was 0.00558 ± 0.00024 s⁻¹. For the same variant, the “self-cleavage kobs at 10000 uM GlcN6P” value (glucosamine-6-phosphate [5]) was 0.00697 ± 0.00023 s⁻¹.

AUAAAAGCGCCAGAACUACAGAAAUUUAGUUGACGAGGAGGAGGUUUAUCGAAUUUUCGGCGGAUGCCUGCAAA [G26U C70G] was tested, and the kcat (glucosamine-6-phosphate [1]) was 0.000115 ± 1e-05 s⁻¹, the KM (glucosamine-6-phosphate [2]) was 142 ± 48 µM and the “self-cleavage kobs at 160 uM GlcN6P” value (glucosamine-6-phosphate [7]) was 6.66e-05 ± 1.3e-05 s⁻¹. The “self-cleavage kobs at 640 uM GlcN6P” value (glucosamine-6-phosphate [3]) was 9.17e-05 ± 1.7e-05 s⁻¹, the “self-cleavage kobs at 2500 uM GlcN6P” value (glucosamine-6-phosphate [4]) was 0.000117 ± 1.6e-05 s⁻¹ and the “self-cleavage kobs at 10000 uM GlcN6P” value (glucosamine-6-phosphate [5]) was 9.26e-05 ± 2.8e-05 s⁻¹.

With AUAAAAGCGCCAGAACUACAGAAAUUUAGUUGACGAGGAGGAGGUUUAUCGAAUUUUCGGCGGAUGCCUACAAA [G26U C70A] the kcat (glucosamine-6-phosphate [1]) was 0.000113 ± 4.5e-05 s⁻¹, the “self-cleavage kobs at 160 uM GlcN6P” value (glucosamine-6-phosphate [7]) was 7.79e-05 ± 2.3e-05 s⁻¹ and the “self-cleavage kobs at 640 uM GlcN6P” value (glucosamine-6-phosphate [3]) was 6.27e-05 ± 1.2e-05 s⁻¹. For the same variant, the “self-cleavage kobs at 2500 uM GlcN6P” value (glucosamine-6-phosphate [4]) was 0.0002 ± 4e-05 s⁻¹ and the “self-cleavage kobs at 10000 uM GlcN6P” value (glucosamine-6-phosphate [5]) was 0.000106 ± 1.9e-05 s⁻¹.

AUAAAAGCGCCAGAACUACAGAAAUGUAAUUGACGAGGAGGAGGUUUCUCGAAUUUUCGGCGGAUGCCUCCAAA [G29A A48C] was tested, and the kcat (glucosamine-6-phosphate [1]) was 3.13e-05 ± 8.9e-06 s⁻¹ and the “self-cleavage kobs at 2500 uM GlcN6P” value (glucosamine-6-phosphate [4]) was 3.4e-05 ± 1.6e-05 s⁻¹.

In the case of AUAAAAGCGCCAGAACUACAGAAAUUUAGUUGACGAGGAGGAGGUUUAUCGAAUUUUCGGCGGAUGCCUCCAAA [G26U], the kcat (glucosamine-6-phosphate [1]) is reported as 0.0318 ± 0.01 s⁻¹, the KM (glucosamine-6-phosphate [2]) is reported as 1200 ± 480 µM and the “self-cleavage kobs at 40 uM GlcN6P” value (glucosamine-6-phosphate [6]) is reported as 0.00112 ± 7.2e-05 s⁻¹. For the same variant, the “self-cleavage kobs at 160 uM GlcN6P” value (glucosamine-6-phosphate [7]) was 0.00324 ± 0.00048 s⁻¹, the “self-cleavage kobs at 640 uM GlcN6P” value (glucosamine-6-phosphate [3]) was 0.00931 ± 0.0012 s⁻¹ and the “self-cleavage kobs at 2500 uM GlcN6P” value (glucosamine-6-phosphate [4]) was 0.0179 ± 0.0032 s⁻¹. For the same variant, the “self-cleavage kobs at 10000 uM GlcN6P” value (glucosamine-6-phosphate [5]) was 0.0456 ± 0.0065 s⁻¹.

For AUAAAAGCGCCAGAACUACAGAAAUAUAGUUGACGAGGAGGAGGUUUAUCGAAUUUUCGGCGGAUGCCUCCAAA [G26A], the kcat (glucosamine-6-phosphate [1]) was 0.0116 ± 0.0035 s⁻¹, the “self-cleavage kobs at 40 uM GlcN6P” value (glucosamine-6-phosphate [6]) was 0.00121 ± 0.00035 s⁻¹ and the “self-cleavage kobs at 160 uM GlcN6P” value (glucosamine-6-phosphate [7]) was 0.00345 ± 0.0008 s⁻¹. For the same variant, the “self-cleavage kobs at 640 uM GlcN6P” value (glucosamine-6-phosphate [3]) was 0.0112 ± 0.0022 s⁻¹ and the “self-cleavage kobs at 2500 uM GlcN6P” value (glucosamine-6-phosphate [4]) was 0.00852 ± 0.0022 s⁻¹.
